Reference: patent publication US20130130347, “CONSTRUCTS AND METHODS FOR THE ASSEMBLY OF BIOLOGICAL PATHWAYS” (CORNELL UNIVERSITY, published 2013)

Experiments:
PBSII-nYFP chimera [1] = biological target: PBSII-nYFP chimera (artificial); experiment: SPR; injected as mixture with cYFP-Zif268, 5 uM; same SPR buffer with 0.1 mM ZnCl2; conditions: tags: nYFP C-terminal fusion, His
Description: Proteins that were directly dialyzed against buffer A (see above) were used in surface plasmon resonance (SPR) experiments. Proteins were further concentrated using Amicon Ultra-15 Centrifugal Filter Unit with Ultracel-10 membrane. The experiments were conducted using T100 apparatus (GE Healthcare, Biacore) and streptavidin-coated sensor chip (SA). […] The biotinylated single-stranded anchor DNA (5′-CGCTCGAGTAGTAAC-3′-Biotin; SEQ ID NO: 41) was immobilized on all four flow-cells. The anchor allowed capture of the double-stranded DNA molecule with complementary overhang. A DNA scaffold (5′-[…]-3′; SEQ ID NO: 42) was used that contained ZF binding sites for Zif268 and PBSII (underlined), respectively. Control DNA (5′-[…]-3′; SEQ ID NO: 43) contained a scrambled version of the scaffold and was used to correct the responses for unspecific binding of ZF chimeras. The control DNA was immobilized in the first flow-cell, while the DNA scaffold was used in the second flow cell. Typically, immobilization of control and scaffold DNA used 0.5 μM DNA and was performed for 5 min at 5 μl/min. Protein binding was measured following injection of appropriate concentration of PBSII-nYFP and/or cYFP-Zif268 chimeras in the SPR buffer. The surface of the sensor chip was regenerated by two 30 s injections of 50 mM NaOH that removed the DNA from the anchor.

cYFP-Zif268 chimera [2] = experiment: SPR; 20 mM HEPES pH 7.4, 150 mM NaCl, 2 mM DTT, 0.1 mM ZnCl2; 1 and 5 uM protein
MBP-ZFb (OZ300) = MBP-ZFb (OZ300) (artificial); experiment: EMSA; biotinylated oligo, flanks not given; text states low nanomolar affinity without values; conditions: label: 5'-biotin
MBP-ZFb (OZ300) (artificial), sequence (chain, as listed by the source): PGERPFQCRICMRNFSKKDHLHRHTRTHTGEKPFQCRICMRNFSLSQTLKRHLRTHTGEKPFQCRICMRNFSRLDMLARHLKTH
Description: (§1) From this analysis, the amount of ZF-chimera present in cells was estimated at approximately 5000 per cell or 8 μM. The plasmid concentration in cells was determined to be approximately 127 per cell or […]. These values were used to design/select ZF domains with appropriate affinity and to design DNA scaffolds with enough binding sites to accommodate all ZF fusion proteins. FIG. 4B is a western blot analysis comparing the soluble and insoluble protein levels of unmodified MBP with MBP fused to 1, 2, 3 or 4 fingers as indicated. Flow cytometric analysis of cellular fluorescence levels of superfolder green fluorescent protein (sfGFP) fused to increasing number of fingers as indicated (FIG. 4B; right). FIG. 4C is an EMSA of purified PBSII-nYFP and cYFP-Zif268 chimeras using […] DNA with PBSII or Zif268 binding sites. MW, molecular weight ladder. Arrow indicates chimera-DNA complexes. EMSA of purified MBP-ZFa, MBP-ZFb and MBP-ZFc chimeras using varying amounts of biotinylated DNA containing the ZFa, ZFb or ZFc binding site is shown in FIG. 4D. Detection of DNA and DNA-protein complexes was with streptavidin-HRP against biotinylated DNA. […]
(§2) For EMSA with PBSII and Zif268, 1 μg of the purified PBSII-nYFP and cYFP-Zif268 chimeras were incubated with 375 μM scaffold DNA for 3 h. […] Nucleic acid-protein complexes were detected under UV light. […]

MBP-ZFa (OZ052) = MBP-ZFa (OZ052) (artificial); experiment: EMSA; biotinylated oligo, flanks not given; chimera-DNA dimer also seen; text states low nanomolar affinity without values; conditions: label: 5'-biotin
MBP-ZFa (OZ052) (artificial), sequence (chain, as listed by the source): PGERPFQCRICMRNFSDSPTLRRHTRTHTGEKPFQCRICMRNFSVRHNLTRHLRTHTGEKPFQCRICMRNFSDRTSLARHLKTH
Description: as §1, §2

cYFP-Zif268 chimera [3] = experiment: EMSA; full oligo sequence not given; text states low nanomolar affinity without values
PBSII-nYFP chimera [4] = biological target: PBSII-nYFP chimera (artificial); experiment: as above; conditions: tags: nYFP C-terminal fusion, His
cYFP-Zif268 chimera [5] = experiment: SPR; random scaffold reference, 1 uM protein; used to correct for unspecific binding
MBP-ZFc (OZ076) = MBP-ZFc (OZ076) (artificial); experiment: EMSA; biotinylated oligo, flanks not given; text states low nanomolar affinity without values; conditions: label: 5'-biotin
MBP-ZFc (OZ076) (artificial), sequence (chain, as listed by the source): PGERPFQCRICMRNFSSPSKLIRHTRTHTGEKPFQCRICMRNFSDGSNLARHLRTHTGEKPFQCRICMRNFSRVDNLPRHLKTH
Description: as §1, §2

PBSII-nYFP chimera (artificial), sequence (chain, as listed by the source mutant): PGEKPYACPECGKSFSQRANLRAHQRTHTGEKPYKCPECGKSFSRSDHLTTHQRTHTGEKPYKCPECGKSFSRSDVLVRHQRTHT

B1: DNA scaffold with Zif268 and PBSII sites, 2-bp spacer (dsDNA)
DNA 1: GTTACTACTCGAGCGATCGGAATTCGAAGGGGAATTGCTGCTGCGGTGTTTGGATGGAGCGTGGGCGGGGTGTGGAAATTGATGCTGCATTGACCACCCAAGACGACTGCAGTACA
DNA 2: TGTACTGCAGTCGTCTTGGGTGGTCAATGCAGCATCAATTTCCACACCCCGCCCACGCTCCATCCAAACACCGCAGCAGCAATTCCCCTTCGAATTCCGATCGCTCGAGTAGTAAC
B1: binds (PBSII-nYFP chimera [1]); binds (cYFP-Zif268 chimera [2]).

B2: ZFb binding site DNA (dsDNA)
DNA 1: GCGGCTGGG
DNA 2: CCCAGCCGC
B2: binds (MBP-ZFb (OZ300)).

B3: ZFa binding site DNA (dsDNA)
DNA 1: GTCGATGCC
DNA 2: GGCATCGAC
B3: binds (MBP-ZFa (OZ052)).

B4: Zif268 binding site DNA (dsDNA)
DNA 1: GCGTGGGCG
DNA 2: CGCCCACGC
B4: binds (cYFP-Zif268 chimera [3]).

B5: PBSII binding site DNA (dsDNA)
DNA 1: GTGTGGAAA
DNA 2: TTTCCACAC
B5: binds (PBSII-nYFP chimera [4]).

B6: scrambled control scaffold (dsDNA)
DNA 1: GTTACTACTCGAGCGGAATTCATCTAAGTTACTAGAGTCCTTATAGTTGACTCTTGTTCCACATTCTACTGTACACGCTCAGTACTCGAGCATACCTATCTCCTGCAGTACA
DNA 2: TGTACTGCAGGAGATAGGTATGCTCGAGTACTGAGCGTGTACAGTAGAATGTGGAACAAGAGTCAACTATAAGGACTCTAGTAACTTAGATGAATTCCGCTCGAGTAGTAAC
B6: no binding (cYFP-Zif268 chimera [5]).

B7: ZFc binding site DNA (dsDNA)
DNA 1: GAGGACGGC
DNA 2: GCCGTCCTC
B7: binds (MBP-ZFc (OZ076)).
